# Source: patent publication US20100267638A1, “EXOSITE-DIRECTED THROMBIN INHIBITORS” (CLEVELAND STATE UNIVERSITY, priority 2003, published 2010)
# No end group written: not given here. *: point of attachment. SO3 = O=S(=O)(O)*
# What was measured:
# prothrombinase = target: T1, prothrombinase (Homo sapiens, UniProt P00734); assay: Assay measuring thrombin formation (prothrombinase inhibition by peptides, DAPA fluorescence); type: biochemical
# T1 construct: purchased Haematologic Technologies Inc. (Essex Junction, Vt.)
# Procedure: Assay measuring thrombin formation. The formation of thrombin was analyzed using the fluorescent thrombin inhibitor DAPA as described using a Perkin Elmer LS-50B Luminescence Spectrometer (Perkin-Elmer LLC, Norwalk Conn.) with λex=280 nm, λem=550 nm and a 500 nm long pass filter in the emission beam (Schott KV-500). […] In all cases peptides were preincubated with factor tor Va prior to the assay as described in the legend to the figures. The final concentration of factor tor Va in the mixture was 4 nM with factor Xa at 10 nM, prothrombin at 350 nM, DAPA at 700 nM, in the presence of PCPS vesicles (10 μM). The initial rate of thrombin formation (nM IIa·min^−1) was calculated as described during the initial 5-10 sec of the reaction. To verify if the peptides have any effect on the active-site of thrombin, control experiments were performed as follows: a given peptide (at 100 μM) was incubated in the assay buffer containing DAPA (700 nM); the base line was monitored for 30 sec; thrombin (350 nM) was then added to the mixture and the fluorescent intensity resulting from the complexation of DAPA with the active site of thrombin was monitored for 60 sec. The slope of the reaction measuring thrombin formation in the presence of a given peptide during the first 5 sec was calculated and compared to the slope of a reaction obtained in the absence of peptide. It is noteworthy that under the conditions employed the thrombin-DAPA interaction occurred fast and the calculated slope of the reaction was sensitive to all parameters used. […] All experiments were performed in triplicates or as indicated. The concentration of each peptide given in the figures and figure legends is their final concentration in the assay. […] In some cases the data were also analyzed and plotted using DeltaGraph (DeltaPoint, Monterey, Calif.).
# Specifically, peptides were incubated with factor tor Va as described herein at a fixed concentration (100 μM). The percent of factor tor Va cofactor activity was calculated by comparing the activity of prothrombinase in the presence of a given peptide to the activity of prothrombinase determined in a control reaction in the absence of peptide and in the presence of factor Xa. […] The control peptide represents a pentadecapeptide from the middle portion of factor tor Va heavy chain (P15H) (SEQ ID NO. 22). […] All other peptides from region 680-709 had no significant effect on prothrombinase activity.
# HC3 represents amino acid sequence 690-699 of factor tor Va heavy chain; HC4 contains the sequence 695-704 of human factor tor Va heavy chain; P15H represents amino acid sequence 337-351 from the middle portion of human factor tor Va heavy chain. […] The concentration of each peptide given on the x axis represents its final concentration in the prothrombinase mixture. […] Thus, both peptides show similar inhibitory potential.
# intrinsic tenase = intrinsic tenase (Homo sapiens, UniProt P00451+P00740); assay: Inhibition of intrinsic tenase; type: biochemical; settings: FIG. 11A
# Source text: FIG. 11A illustrates inhibition of intrinsic tenase by the double sulfonated peptide DYDYQ (1, 2) (SEQ ID NO. 9). […] As is shown in FIG. 11A, as the concentration of DYDYQ (1, 2) is increased, the reduction in activity is dramatic.
# FIG. 11B and its insert panel illustrate the effect of increasing concentration of the peptide DYDYQ (1, 2) (SEQ ID NO. 9) upon the reaction kinetics of intrinsic tenase. Specifically, this figure illustrates the kinetics of inhibition of intrinsic tenase in the presence of the double sulfonated peptide DYDYQ (1, 2). In FIG. 11B, the data are plotted as Vo (initial velocity in arbitrary units) as a function of increasing factor X concentration in the presence of increasing concentration of DYDYQ (1, 2). The concentrations of DYDYDQ (1, 2), in addition with factor VIIIa, are 10 nM (filled triangles), 25 nM (filled diamonds), and 50 nM (filled circles). Control curves of factors VIIIa and IXa (filled squares) and factor IXa (inverted triangles) are also noted. The insert panel of FIG. 11B is presented for greater clarity and details the region of factor X concentration up to 300 nM, and without the curve of 50 nM of DYDYQ (1, 2).
# [1] = Clotting time as a function of peptide concentration (FIG. 12); settings: peptide 500 nM
# Source text: FIG. 12 is a graph illustrating clotting time as a function of concentration of various peptides of interest as follows: DYDYQ (SEQ ID NO. 11) (filled squares); DYDYQ (1, 2) (or as designated in shorthand form, D5Q1,2) (SEQ ID NO. 9) (filled triangles); DYDYQ-1 (SEQ ID NO. 7) (filled inverted triangles); and DYDYQ-2 (SEQ ID NO. 8) (filled diamonds).
# thrombin [2] = target: T2, thrombin (Homo sapiens, UniProt P00734); assay: Inhibition of activation of factor VIII by thrombin (SDS-PAGE); type: biochemical; set-up: Factor Xa cleaves prothrombin to form thrombin; settings: FIG. 9A
# Source text: Specifically, FIG. 9A illustrates the inhibition of activation of factor VIII by thrombin, the inhibition resulting from the double sulfonated peptide DYDYQ (1, 2) (SEQ ID NO. 9) binding to thrombin. FIG. 9B illustrates the inhibition of activation of factor V by thrombin, the inhibition resulting from the double sulfonated peptide DYDYQ (1, 2) (SEQ ID NO. 9) binding to thrombin. FIGS. 9A and 9B result from analysis by SDS-PAGE as previously described with regard to FIG. 4(A and B). […] The various fragments of each factor are noted on the right hand side of each figure.
# thrombin [3] = target: T2, thrombin; assay: Activation of plasma factor V by thrombin preincubated with peptide (SDS-PAGE, immunoblotting); type: biochemical; set-up: Factor Xa cleaves prothrombin to form thrombin; purchased Haematologic Technologies Inc. (Essex Junction, Vt.); settings: FIG. 9B
# Procedure: Gel Electrophoresis and western blotting. Sodium dodecyl sulfate polyacrylamide gel electrophoresis (SDS-PAGE) analyses were performed using 4-12% gradient gels according to the method of Laemmli. In several experiments, proteins were transferred to polyvinylidene difluoride (PVDF) membranes according to the method described by Towbin et al. After transfer to nitrocellulose, factor V heavy and light chain(s) were detected using the appropriate monoclonal and polyclonal antibodies. Immunoreactive fragments were visualized with chemiluminescence.
# Factor V (250 nM) was incubated with thrombin (1 nM). And FIG. 4B illustrates thrombin (1 nM) was preincubated with 100 μM peptide DYDYQ and the mixture was added to factor V (250 nM). […] Fragments were identified following staining with monoclonal antibody αHFV#17 that recognizes an epitope between amino acid residues 307-506 of factor V and chemiluminescence as described. Lane 1 in both panels depicts aliquots of the mixture withdrawn from the reaction before the addition of thrombin or thrombin/peptide mixture while lanes 2-7 show aliquots of the reaction mixture withdrawn at 30 sec, 1 min, 3 min, 5 min, 10 min, 15 min following the addition of thrombin alone or of thrombin/peptide mixture. The time of incubation is shown at the bottom of the figure. Position of the molecular weight markers is indicated at left.
# Sequence of intrinsic tenase (P00740 227-461 limits assumed): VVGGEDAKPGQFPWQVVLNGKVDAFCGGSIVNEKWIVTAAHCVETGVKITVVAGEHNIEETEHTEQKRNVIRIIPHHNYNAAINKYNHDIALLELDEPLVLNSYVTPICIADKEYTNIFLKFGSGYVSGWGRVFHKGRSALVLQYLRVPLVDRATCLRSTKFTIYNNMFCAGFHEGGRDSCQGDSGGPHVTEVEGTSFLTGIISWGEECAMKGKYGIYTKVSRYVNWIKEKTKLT
# Sequence of intrinsic tenase (P00451 1709-2351 limits assumed): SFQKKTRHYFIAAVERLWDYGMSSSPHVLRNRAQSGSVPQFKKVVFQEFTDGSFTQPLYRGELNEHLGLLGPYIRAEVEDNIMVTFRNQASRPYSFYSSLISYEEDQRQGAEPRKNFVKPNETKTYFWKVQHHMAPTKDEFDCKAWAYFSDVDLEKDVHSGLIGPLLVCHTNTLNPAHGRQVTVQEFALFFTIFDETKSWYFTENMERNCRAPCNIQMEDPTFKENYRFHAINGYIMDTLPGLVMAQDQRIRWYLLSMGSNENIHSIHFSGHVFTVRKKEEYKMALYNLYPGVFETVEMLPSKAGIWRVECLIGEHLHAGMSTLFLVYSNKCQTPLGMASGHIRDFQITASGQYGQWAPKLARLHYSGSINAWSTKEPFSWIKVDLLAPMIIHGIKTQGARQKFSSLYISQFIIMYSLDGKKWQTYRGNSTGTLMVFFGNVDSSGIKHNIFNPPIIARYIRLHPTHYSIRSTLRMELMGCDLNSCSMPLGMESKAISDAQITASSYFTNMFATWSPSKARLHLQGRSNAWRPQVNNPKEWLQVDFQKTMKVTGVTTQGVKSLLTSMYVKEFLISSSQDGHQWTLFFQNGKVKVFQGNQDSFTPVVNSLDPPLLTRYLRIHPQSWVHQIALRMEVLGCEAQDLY
substance,measurement,setting,value
"DY(—SO3)DY(−SO3)Q (DY(SO3)DY(SO3)Q) [DYDYQ-1,2, double sulfonated peptide DYDYQ]",rank of inhibitory effect on prothrombinase among peptides,prothrombinase; FIG. 10A,greatest inhibitory effect
same,inhibition of prothrombinase activity with increasing peptide,"prothrombinase; FIG. 10A, up to 8000 nM",significant inhibitory effects
same,type of inhibition of prothrombinase with respect to prothrombin,"prothrombinase; kinetic analyses, increasing prothrombin and peptide",competitive inhibition mechanism
same,inhibition of intrinsic tenase,intrinsic tenase,dramatic reduction
same,clotting time,[1],relatively long clotting times
same,rank of clotting time among peptides,[1],longest clotting time
same,inhibition of activation of factor VIII by thrombin,thrombin [2],potent inhibitor
same,inhibition of activation of factor V by thrombin,thrombin [3],potent inhibitor
